Measured values from patent US20230346948A1, “Lipid conjugated peptide inhibitors of PICK1” (University of Copenhagen, priority 2020, published 2023).

Key:
purified PICK1 = target: T1, purified PICK1 (Rattus norvegicus, UniProt Q9EP80); assay: Fluorescence polarization competition, substituted peptide libraries; assay type: binding; conditions: relative to HWLKV; tracer 5FAM-HWLKV 20 nM
T1 construct: Full length rat PICK1 (pET41) was prepared as described earlier; inferred from pET41 vector and Glutathione-Sepharose capture) (N, cleaved yes); made in house; host or cells: E. coli BL21-DE3-pLysS
Experimental: Full length rat PICK1 (pET41) was prepared as described earlier (Madsen et al., 2005). In brief, PICK1 was expressed in BL21-DE3-pLysS cells and grown at 37° C., induced at OD600=0.6 with 1 mM Isopropyl β-D-1-thiogalactopyranoside (IPTG) and grown 16 hrs at 20° C. Cultures were harvested and re-suspended in 50 mM trisaminomethane (Tris), 125 mM NaCl, 2 mM Dithiothreitol (DTT, Sigma), 1% Triton X-100 (Sigma), 20 μg/mL DNAse 1 and ½ a tablet cOmplete protease inhibitor cocktail (Roche) pr. 1 L culture. The re-suspended pellets were frozen at −80° C. for later purification. The lysate was cleared by centrifugation (36,000×g for 30 min at 4° C.), and the supernatant was incubated with Glutathione-Sepharose 4B beads (GE Healthcare) for 2 hrs at 4° C. under gentle rotation and then centrifuged at 4,000×g for 5 min. The supernatant was removed and the beads were washed twice in 35 mL 50 mM Tris, 125 mM NaCl, 2 mM DTT and 0.01% Triton-X100. The beads were transferred to PD-10 Bio-Spine Chromatography columns (Bio-Rad) and washed with an additional 3 column volumes. Each column was sealed and 0.075 U/μL, Novagen® was added for cleavage 0/N at 4° C. under gentle rotation. PICK1 was eluted on ice and absorption at 280 nm was measured on TECAN plate reader or on a NanoDrop3000. The protein concentration was determined using lambert beers law (A=εcl), εA280PICK1=32320 (cm*mol/L)^−1.
The plate was incubated 20 min on ice in a black half-area Corning Black non-binding surface 96-well plate and the fluorescence polarization was measured directly on a Omega POLARstar plate reader using excitation filter at 488-nm and long pass emission filter at 535-nm.

[1] = test system: diabetic neuropathy (STZ model); conditions: 5MPK, at +2 h
Experimental: Diabetic neuropathy (STZ) model. Diabetes is induced by a single IP injection of […]. Streptozocin solution (100 μl/10 g, Sigma-aldrich S0130, batch #WXBB7152V). Glycemia is tested before, and 7 days after injection.
The mechanical threshold response of the operated mice was measured with calibrated von Frey filaments (“up/down” method) and the 50% threshold (g) was calculated. The experimenter was blinded to mice treatment. […] Compounds were diluted in PBS (vehicle) and administered s.c. at 10 μL/g, in doses as indicated (gabapentine, 5MPK). Statistical analysis was performed using GraphPad Prism 6.0.

[2] = Plasma exposure of biotinylated peptide after s.c. injection, ELISA; assay type: in vivo, mice; conditions: male, C57bl6N, mouse, sc, s.c. 10 μmol/kg, read-out: time of peak plasma concentration (converted)
Experimental: Blood sample collection. Biotinylated TAT-di-PEG4-DATC5 (biot-TPD5; 34 mg/kg=[…]) or Biotinylated myr-di-PEG4-DATC5 (biot-mPD5; […]) diluted in 0.9% NaCl was injected s.c in 8 weeks old male C57bl6N mice (18 mice in total) once, and blood samples were collected after 15 min, 30 min, 1 h, 2 h and 6 h (blood samples from 6 mice per timepoint) using Aprotinine-containing BD Vacutainer®K3EDTA tubes (BD Diagnostics). The blood samples were centrifuged at 3500 RPM for 15 min at 4° C. and the plasma was collected in new tubes and freezed down at −20° C.
ELISA. A 96 well NUNC IMMOBILIZER (Cat. No. 436006) plate was coated with 15 μg/mL […] (Sigma-Aldrich, Product no. A8549) diluted in 100 mM sodium carbonate buffer (pH 9.6) and incubated for 2 h at room temperature on shaker. After incubation the plate was washed with PBS-T (1× phosphate buffered saline with 0.1% TWEEN® 20 (Sigma-Aldrich)) 3×, 1 washing step overnight at room temperature on shaker. […] The plate was read at 450 nm (and 570 nm) on a Wallac VICTOR2 1420 Multilabel Counter from PerkinElmer (Hvidovre, Denmark). The measured absorbance was calibrated to a standard curve generated from standard dilutions of biot-TPD5.

T1 sequence (Q9EP80 whole entry): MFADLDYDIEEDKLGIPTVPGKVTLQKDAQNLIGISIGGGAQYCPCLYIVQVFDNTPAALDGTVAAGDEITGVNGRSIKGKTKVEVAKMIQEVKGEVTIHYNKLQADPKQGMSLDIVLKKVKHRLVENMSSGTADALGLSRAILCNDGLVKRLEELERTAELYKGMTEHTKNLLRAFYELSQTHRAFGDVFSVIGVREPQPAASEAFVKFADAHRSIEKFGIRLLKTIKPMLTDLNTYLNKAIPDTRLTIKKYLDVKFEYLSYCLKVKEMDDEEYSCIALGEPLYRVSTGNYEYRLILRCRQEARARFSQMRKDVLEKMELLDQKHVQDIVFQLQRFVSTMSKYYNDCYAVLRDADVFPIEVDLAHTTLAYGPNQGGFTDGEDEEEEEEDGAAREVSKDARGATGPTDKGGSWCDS

Compound | fold affinity change, combinatorial peptide library (purified PICK1) | further results
EIRV (DAT-C5 variant) [4-mer peptide of combinatorial library] | optimal 4-mer sequences | –
CC(C)C[C@H](CN)CC(=O)O [Pregabalin, reference compound] | – | maximum reversal of mechanical response threshold [1]: 84.7±10.5 % of baseline
TSIRV (DAT-C5 variant) [5-mer peptide of combinatorial library] | optimal 5-mer sequences | –
NSVRV (DAT-C5 variant) [5-mer peptide of combinatorial library] | optimal 5-mer sequences | –
IRV [3-mer peptide of combinatorial library] | optimal 3-mer sequences | –
CC(C)C[C@H](NC(=O)[C@H](Cc1c[nH]c2ccccc12)NC(=O)[C@H](Cc1c[nH]cn1)NC(=O)CCOCCOCCN(CCOCCOCCC(=O)N[C@@H](Cc1c[nH]cn1)C(=O)N[C@@H](Cc1c[nH]c2ccccc12)C(=O)N[C@@H](CC(C)C)C(=O)N[C@@H](CCCCN)C(=O)N[C@H](C(=O)O)C(C)C)C(=O)[C@H](CCCNC(=N)N)NC(=O)[C@H](CCCNC(=N)N)NC(=O)[C@H](CCCNC(=N)N)NC(=O)[C@H](CCC(N)=O)NC(=O)[C@H](CCCNC(=N)N)NC(=O)[C@H](CCCNC(=N)N)NC(=O)[C@H](CCCCN)NC(=O)[C@H](CCCCN)NC(=O)[C@H](CCCNC(=N)N)NC(=O)CNC(=O)[C@H](Cc1ccc(O)cc1)NC(=O)CCCC[C@@H]1SC[C@@H]2NC(=O)N[C@@H]21)C(=O)N[C@@H](CCCCN)C(=O)N[C@H](C(=O)O)C(C)C [biotinylated Tat-NPEG4-(HWLKV)2] | – | Tmax [2]: 30 min
YIIV (DAT-C5 variant) [4-mer peptide of combinatorial library] | optimal 4-mer sequences | –
IIV [3-mer peptide of combinatorial library] | optimal 3-mer sequences | –
